These results are taken from JP2011219380A (dated 2011).

The target of assay [1] is T1, 成熟型ヒトVEGF-D(Hisタッグ付加、二量体、参考例3) (human, UniProt O43915 93-201).
T1 construct: also called human VEGF-D; not shown: His tag
T1 sequence: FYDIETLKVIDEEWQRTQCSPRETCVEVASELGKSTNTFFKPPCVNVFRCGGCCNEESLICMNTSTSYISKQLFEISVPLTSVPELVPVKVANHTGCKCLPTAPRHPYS
Nature of the assay: competition cell ELISA, antibody titrated against 2.5 ug/mL human VEGF-D on human VEGFR-3 CHO cells. (ELISA stands for enzyme-linked immunosorbent assay.)

The target in assay [2] is T2, 成熟型カニクイザルVEGF-D(Hisタッグ付加、二量体、参考例3) (cynomolgus monkey, UniProt O43915 93-201 (human entry)).
T2 construct: also called cynomolgus VEGF-D; not shown: His tag
T2 chain: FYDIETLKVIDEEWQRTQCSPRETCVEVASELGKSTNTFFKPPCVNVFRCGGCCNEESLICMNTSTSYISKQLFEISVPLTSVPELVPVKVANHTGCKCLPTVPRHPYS
Nature of the assay: competition cell ELISA, antibody titrated against 2.5 ug/mL cynomolgus VEGF-D on cynomolgus VEGFR-3 CHO cells.

Assay [3] concerns the target T1, 成熟型ヒトVEGF-D(Hisタッグ付加、二量体、参考例3). Nature of the assay: competition cell ELISA, inhibition of human VEGF-D binding to human VEGFR-3 CHO cells, against chimeric VE48.

B1: VE29キメラ抗体 (antibody, human IgG1, V domains shown)
VH: DVQLQESGPGLVKPSQTVSLTCTVTGYSITNRYHWWNWIRQVSGNKLEWIGYISYSGDTVSNPSLKSRISITRDTSKNQLFLQLNSVTTEDIATYYCARDGGIYFDYWGQGTTLTVSS
VL: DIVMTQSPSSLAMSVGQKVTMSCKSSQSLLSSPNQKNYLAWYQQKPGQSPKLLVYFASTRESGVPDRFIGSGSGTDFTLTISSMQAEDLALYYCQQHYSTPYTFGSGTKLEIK
notes: also called キメラVE29; chimeric VE29
As to B1, in assay [1], the binding result was “binds”.

B2: VE199キメラ抗体 (antibody, human IgG1, V domains shown)
VH: EVQLQQSGPELVKPGASVKMSCKASGYSFTGYNMHWVKQSHGRSLEWIGYIDPYNGDTYYNQKFRDKATLTVDKSSSTAYMQLNSLTSEDSALYYCIRAGYYAMDYWGQGTSVTVSS
VL: DIVMTQTPLSLPVSLGDQASISCRSSQSLVHINGNTYLHWYLQKPGQSPKLLIYKVSNRFSGVPDRFSGSGSGTDFTLKISRVEAEDLGVYFCSQGTHVPRTFGGGTKLEIN
notes: also called キメラVE199; chimeric VE199
Turning to B2, the binding result in assay [2] and in assay [1] was “binds” throughout.

B3: ヒト化VE48抗体(H鎖:VE48HA、L鎖:VE48L6) (antibody, human IgG1, kappa, V domains shown)
VH: QVTLKESGPALVKPTQTLTLTCTFSGFSLSTYGMGVGWIRQPPGKALEWLANIWWNDDKYYNPVLRSRLTISKDTSKNQVVLTMTNMDPVDTATYYCVQVTNPFVFWGQGTLVTVSS
VL: DIVMTQTPLSLPVTPGEPASISCRSSQSLVHINGNTYLHWYLQKPGQSPQLLIYKVSNRFSGVPDRFSGSGSGTDFTLKISRVEAEDVGVYFCSQSTHVPWTFGGGTKVEIKR
notes: also called 48HA/48L6; HA/L6
Consider B3, for which the binding result in assay [3] is “binds”.

B4: ヒト化抗体VE48抗体(48HK/48L6) (antibody, V domains shown)
VH: QVTLKESGPALVKPTQTLTLTCTFSGFSLSTYGMGVGWIRQPPGKALEWLANIWWNDDKYYNPVLRSRLTISKDTSKNQVVLTMTNMDPVDTATYYCVQVTNPFVFWGEGTLVTVSS
VL: DIVMTQTPLSLPVTPGEPASISCRSSQSLVHINGNTYLHWYLQKPGQSPQLLIYKVSNRFSGVPDRFSGSGSGTDFTLKISRVEAEDVGVYFCSQSTHVPWTFGGGTKVEIKR
notes: The light chain is VE48L6; also called VE48HK/VE48L6
Regarding B4, in assay [3], the binding result is given as “binds”.

B5: ヒト化VE199抗体(H鎖:VE199HA、L鎖:VE199LA) (antibody, human IgG1, kappa, V domains shown)
VH: QVQLVQSGPEVKKPGASVKVSCKASGYTFTGYNMHWVRQAPGQGLEWMGYIDPYNGDTYYNQKFQDRVTLTVDKSTSTAYMELSSLRSEDTAVYYCIRAGYYAMDYWGQGTLVTVSS
VL: DIVMTQTPLSLPVTPGEPASISCRSSQSLVHINGNTYLHWYLQKPGQSPQLLIYKVSNRFSGVPDRFSGSGSGTDFTLKISRVEAEDVGVYFCSQGTHVPRTFGGGTKVEIKR
notes: also called VE199HALA
As to B5, in assay [3], the binding result is listed as “binds”.

B6: ヒト化抗体VE48抗体(48HJ/48L6) (antibody, V domains shown)
VH: QVTLKESGPALVKPTQTLTLTCTFSGFSLSTYGMGVGWIRQPPGKALEWLANIWWNDDKYYNPVLQDRLTISKDTSKNQVVLTMTNMDPVDTATYYCVQVTNPFVFWGQGTLVTVSS
VL: DIVMTQTPLSLPVTPGEPASISCRSSQSLVHINGNTYLHWYLQKPGQSPQLLIYKVSNRFSGVPDRFSGSGSGTDFTLKISRVEAEDVGVYFCSQSTHVPWTFGGGTKVEIKR
notes: The light chain is VE48L6; also called VE48HJ/VE48L6
As to B6, the binding result in assay [3] is “binds”.

B7: ヒト化抗体VE48抗体(48HH/48L6) (antibody, V domains shown)
VH: QVTLKESGPALVKPTQTLTLTCTFSGFSLSTYGMGVGWIRQPPGKALEWLANIWWEDDKYYNPVLRSRLTISKDTSKNQVVLTMTNMDPVDTATYYCVQVTNPFVFWGQGTLVTVSS
VL: DIVMTQTPLSLPVTPGEPASISCRSSQSLVHINGNTYLHWYLQKPGQSPQLLIYKVSNRFSGVPDRFSGSGSGTDFTLKISRVEAEDVGVYFCSQSTHVPWTFGGGTKVEIKR
notes: The light chain is VE48L6; also called VE48HH/VE48L6
For the molecule B7, the binding result in assay [3] is listed as “binds”.

B8: HA/L14(H鎖:VE48HA、L鎖:VE48L14) (antibody, human IgG1, kappa, V domains shown)
VH: QVTLKESGPALVKPTQTLTLTCTFSGFSLSTYGMGVGWIRQPPGKALEWLANIWWNDDKYYNPVLRSRLTISKDTSKNQVVLTMTNMDPVDTATYYCVQVTNPFVFWGQGTLVTVSS
VL: DIVMTQTPLSLPVTPGEPASISCRSSQSLVHIKGNTYLHWYLQKPGQSPQLLIYKVSNRFSGVPDRFSGSGSGTDFTLKISRVEAEDVGVYFCSQSTHVPWTFGGGTKVEIKR
notes: also called 48HA/48L14
With B8, the binding result in assay [3] is “binds”.

B9: ヒト化抗体VE48抗体(48H16/48L6) (antibody, V domains shown)
VH: QVTLKESGPALVKPTQTLTLTCTFSGFSLSDYGMGVGWIRQPPGKALEWLANIWWNDDKYYNPVLRSRLTISKDTSKNQVVLTMTNMDPVDTATYYCVQVTNPFVFWGEGTLVTVSS
VL: DIVMTQTPLSLPVTPGEPASISCRSSQSLVHINGNTYLHWYLQKPGQSPQLLIYKVSNRFSGVPDRFSGSGSGTDFTLKISRVEAEDVGVYFCSQSTHVPWTFGGGTKVEIKR
notes: The light chain is VE48L6; also called VE48H16/VE48L6
With B9, in assay [3], the binding result is listed as “binds”.

B10: ヒト化抗体VE48抗体(48H17/48L6) (antibody, V domains shown)
VH: QVTLKESGPALVKPTQTLTLTCTFSGFSLSTYGMGVGWIRQPPGKALEWLANIWWEDDKYYNPVLRSRLTISKDTSKNQVVLTMTNMDPVDTATYYCVQVTNPFVFWGEGTLVTVSS
VL: DIVMTQTPLSLPVTPGEPASISCRSSQSLVHINGNTYLHWYLQKPGQSPQLLIYKVSNRFSGVPDRFSGSGSGTDFTLKISRVEAEDVGVYFCSQSTHVPWTFGGGTKVEIKR
notes: The light chain is VE48L6; also called VE48H17/VE48L6
Consider B10, for which the binding result in assay [3] is recorded as “binds”.

B11: ヒト化抗体VE48抗体(48HI/48L6) (antibody, V domains shown)
VH: QVTLKESGPALVKPTQTLTLTCTFSGFSLSDYGMGVGWIRQPPGKALEWLANIWWNDDKYYNPVLRSRLTISKDTSKNQVVLTMTNMDPVDTATYYCVQVTNPFVFWGQGTLVTVSS
VL: DIVMTQTPLSLPVTPGEPASISCRSSQSLVHINGNTYLHWYLQKPGQSPQLLIYKVSNRFSGVPDRFSGSGSGTDFTLKISRVEAEDVGVYFCSQSTHVPWTFGGGTKVEIKR
notes: The light chain is VE48L6; also called VE48HI/VE48L6
For B11, the binding result in assay [3] is reported as “binds”.

B12: ヒト化抗体VE48抗体(48H18/48L6) (antibody, V domains shown)
VH: QVTLKESGPALVKPTQTLTLTCTFSGFSLSDYGMGVGWIRQPPGKALEWLANIWWEDDKYYNPVLRSRLTISKDTSKNQVVLTMTNMDPVDTATYYCVQVTNPFVFWGEGTLVTVSS
VL: DIVMTQTPLSLPVTPGEPASISCRSSQSLVHINGNTYLHWYLQKPGQSPQLLIYKVSNRFSGVPDRFSGSGSGTDFTLKISRVEAEDVGVYFCSQSTHVPWTFGGGTKVEIKR
notes: The light chain is VE48L6; also called VE48H18/VE48L6
In the case of B12, in assay [3], the binding result is “binds”.
